Assay results taken from patent US20210292393A1.
Where a chain is given by its changes, count along the chain named. Values joined by “and” are separate entries in the source; they are usually repeats but may differ in a detail not shown here. Equal values may be shown once.

B1: antibody 493 (antibody, V domains shown)
VH: EVQLVESGGGLIQPGRSLRLSCAASGFTVSITYMSWVRQAPGKGLEWVSLIYSGGSSYYADSVKGRFTISRDNSKNTLYLQMNSLRAEDTAVYYCATTMVRGVIISYYYGMDVWGQGTTVTVSS
VL: QSALTQPASVSGSPGQSITISCTGTSSDVGGYNYVSWYQQHPGKAPKLMIYEVSNRPSGVSNRFSGSKSGNTASLTISGLQAEDEADYYCSSYTSSSTLVFGGGTKLTVL
B2: antibody 383 (antibody, V domains shown)
VH: EVQLVESGGGLVQPGGSLRLSCAASGFTFSSYDMHWVRQATGKGLEWVSTIGTAGDTYYPGSVKGRFTISRENAKNSLYLQMNSLRAGDTAVYYCARVAYSSSFVYWYFDLWGRGTLVTVSS
VL: DIQMTQSPSSLSASIGDRVTITCRASQSISSYLNWYQQKPGKAPNLLIYAASSLQSGVPSRFSGSGSGTDFTLTISSLQPEDFATYYCQQSYTTPLYTFGQGTKLEIK
B3: antibody 464 (antibody, V domains shown)
VH: QVQLVQSGAEVKKPGASVKVSCKVSGYTLTELSMHWVRQAPGKGLEWMGGFDPEDGETIYAQKFQGRVTMTEDTSTDTAYMELSSLRSEDTAVYYCATARAFGVANWFDPWGQGTLVTVSS
VL: QSVLTQPPSASGTPGQRVTISCSGSSSNIGSNYVYWYQQLPGTAPKLLIYRNNQRPSGVPDRFSGSKSGTSASLAISGLRSEDEADYYCAAWDDSLSGLYVFGTGTKVTVL
B4: antibody 472 (antibody, V domains shown)
VH: EVQLVESGGGLIQPGGSLRLSCAASGFTVSSNYMSWVRQAPGKGLEWVSVIYSGGTTHYADSVKGRFTISRDNSKNTLYLQMNSLRAEDTAVYYCANYGMDVWGQGTTVTVSS
VL: SYELTQPSSVSVSPGQTARITCSGDVLAKKYARWFQQKPGQAPVLVIYKDSERPSGIPERFSGSSSGTTVTLTISGAQVEDEADYYCYSAADKVFGGGTKLTVL
B5: antibody 490 (antibody, V domains shown)
VH: QVQLQESGPGLVKPSGTLSLTCAVSGGSISSSNWWSWVRQPPGKGLEWIGELYHSGSTNYNPSLKSRVTISVDKSKNQFSLKLSSVTAADTAVYYCARVGPYYYDSSGYYNYFDYWGPGTLVTVSS
VL: EIVLTQSPATLSLSPGERATLSCRASQSVSSYLAWYQQKPGQAPRLLIYDASNRATGIPARFSGSGSGTDFTLTISSLEPEDFAVYYCQQRSNWPPGITFGQGTRLEIK
B6: antibody 551 (antibody, V domains shown)
VH: EVQLVESGGGLVQPGGSLRLSCAASGFTFSSYWMSWVRQAPGKGLEWVANINQDGSDKYYVDSVKGRFTISRDNAKNSLYLQMNSLRAEDTAVYYCARAPGWAAAPTFDYWGQGTLVTVSS
VL: QSALTQPRSVSGSPGQSVTISCTGTSSDVGGYNYVSWYQQHPGKAPKFMIYDVSKRPSGVPDRFSGSKSGNTASLTISGLQAEDEADYYCCSYAGSYTLVVFGGGTKLTVL
B7: antibody 544 (antibody, V domains shown)
VH: QVQLQQWGAGLLKPSETLSLTCAVYGGSFSGYYWSWIRQPPGKGLEWIGEINHSGSTNYNPSLKSRVTISVDTSKNQFSLKLSSVTAADTAVYYCARGFKWFGELLFGAQGTLVTVSS
VL: not shown
B8: antibody 524 (antibody, V domains shown)
VH: QVQLVESGGGVVQPGRSLRLSCAASGFTFSSYAMHWVRQAPGKGLEWVAVISYDGSNKYYADSVKGRFTISRDNSKNTLYLQMNSLRAEDTAVYYCAKAGGGSYYRGFDYWGQGTLVTVSS
VL: QSVLTQPPSVSAAPGQKVTISCSGSNSNIGNNYVSWYQQLPGSAPKLLIYDNDKRPSGIPDRFSGSKSGTSATLGITGLQTGDEADYYCGAWDSSLTALVFGGGTKLTVL
B9: antibody 538 (antibody, V domains shown)
VH: QLQLQESGPGLVKPSETLSLTCTVSGGSISSSSYYWGWIRQPPGKGLEWIGSINYSGSTYYNPSLKSRVTISVDTSKNQFSLKLSSVTAADTAVYYCARYHDYGDDYWGQGTLVTVSS
VL: QLVLTQSPSASASLGASVKLTCTLSSGHSRYAIAWHQQQPEKGPRYLMKLNSDGSHSKGDGIPDRFSGSSSGAERYLTISSLQSEDEADYYCQTWGTGIQVFGGGTKLTVL
B10: antibody 436 (antibody, V domains shown)
VH: QVQVVESGGGVVQPGRSLRLSCAASGFTFSSYAMHWVRQAPGKGLEWVAVISYDGNNEYYVDPVKGRFTISRDNSKNTLYLQMNSLRAEDTALYYCATSREAIVVGGILDYWGQGTLVTVSS
VL: DIQMTQSPSSLSASVGDRVTITCQASHDINNFLNWYQQKPGQAPKLLIYDASNLETGVPSRFSGSGSGTDFTFTISSLHPEDVATYYCQQYDGLPRYVTFGQGTKLEIR
B11: antibody 304 (antibody, V domains shown)
VH: EVQLLESGGGLVQPGGSLRLSCAASGFTFSTYAMSWVRQAPGKGLEWVSAISGSGGSTYYADSVKGRFTISRDNSKNTLYLQMNSLRAEDTAVYYCASGYSPDYWGQGTLVTVSS
VL: AIQMTQSPSSLSASVGDRVTITCRASQGIRNDLGWYQQKPGKAPKLLIYAASSLQSGVPSRFSGSGSGTDFTLTISSLQPEDFATYYCLQDYNYPRTFGQGTKVEIK
B12: antibody 389 (antibody, V domains shown)
VH: QVQLVESGGGVVQPGRSLRLSCAASGFTFSSYAMHWVRQAPGKGLEWVAVISYDGSNKYYADSVKGRFTISRDNSKNTLYLQMNSLRAEDTAVYYCASQGRMYVRGVDYGVYWGQGTLVTVSS
VL: NFMLTQPHSVSESPGKTVTISCTGSSGSIASNYVQWYQQRPGSAPTTVIYEDNQRPSGVPDRFSGSIDSSSNSASLTISGLKTEDEADYYCQSYDSSKISHAVFGGGTQLTVL
B13: antibody 382 (antibody, V domains shown)
VH: QVQLVESGGGVVQPGRSLRLSCAASGFTFSNYGMHWVRQAPGKGLEWMTVISFDGRNKYYADSVKGRFTISRDNSKNTLFLQMNSLTTEDTALYFCASGRRPRYSSGWSFDYWGQGTLVTVSS
VL: DIQMTQSPSSLSASVGDRVTITCQASQDIGNYLNWYQQKLGKAPNLLIYDASNLETGVPSRFSGSGSGTDFTFTINSLQPEDTATYYCQQYDDPSITFGQGTRLEIK
B14: antibody 505 (antibody, V domains shown)
VH: EVQLVESGGGLVKPGGSLRLSCAASGFTFSSYSMNWVRQAPGKGLEWVSSISSSSSYIYYADSVKGRITISRDNAKNSLYLQMNSLRAEDTAVYYCAREYPNFRAEWLLSPYGMDVWGQGTTVTVSS
VL: QSALTQPASVSGSPGQSITISCTGTSSDVGSYNLVSWYQQHPGKAPKLMIYEVSKRPSGVSNRFSGSKSGNTASLTISGLQAEDEADYYCCSYAGSSTSVKVFGTGTKVTVL
B15: antibody 390 (antibody, V domains shown)
VH: B1 VH with R16G, I31S, T32N, L50I, S57T, T90S, Y94S, V103L
VL: B1 VL
B16: antibody 507 (antibody, V domains shown)
VH: QVQLQESGPGLVKPSGTLSLTCAVSGGSISSSNWWSWVRQPPGKGLEWIGEIYHSGNTNYNPSLKSRVTISVDKSKNQFSLKLSSVTAADTAVYYCARREWLRLFDYWGQGTLVTVSS
VL: B1 VL with G31S, Y34L, N55K, S91C, T94A, S95G, L99Y, G103T, L107V
B17: antibody 413 (antibody, V domains shown)
VH: EVQLVESGGGLIQPGGSLRLSCAASGFTVSGNYMNWVRQAPGKGLEWVSVIYSGGSTYYADSVKGRFTISRANSKNTLYLQMNSLRAEDTAVYYCASTSLVRGLIILYYYGMDVWGQGTTVTVSS
VL: B1 VL
B18: antibody 485 (antibody, V domains shown)
VH: QVQLQESGPGLVKPSGTLSLTCAVSGASISSSNWWSWVRQPPGKGLEWIGEIYHSGSTNYNPSLKSRVTISVDKSKNQFSLKLSSVTAADTAVYYCARRSYYGSGSYYPFDYWGQGTLVTVSS
VL: QSALTQPASVSGSPGQSITISCTGTSSDVGSYNLVSWYQQHPGKAPKLMIYEGRKRPSGVSNRFSGSKSGNTASLTISGLQAEDEADYYCCSYAGSSTYVFGTGTKVTVL
B19: antibody 374 (antibody, V domains shown)
VH: QVQLQESGPGLVKPSGTLSLTCAVSGGSISSSKWWSWVRQPPGKGLEWIGEIYHSGSTNYNPSLKSRVTISVDKSKNQFSLKLSSVTAADTAVYYCARRELGEGTFTYWGQGTLVTVSS
VL: not shown

Target: SARS-CoV-2 full length spike protein, D614G mutant, expressed on CHO cells (SARS-CoV-2), P0DTC2
Conditions: remark: other sources report otherwise

| Binder | median fluorescence intensity, fold over isotype control (fold over isotype) | median fluorescence fold over isotype control (fold over isotype) |
| --- | --- | --- |
| B1 | 1.72 |  |
| B2 |  | 6.38 |
| B3 | 0.86 |  |
| B4 | 1.22 |  |
| B5 | 1.03 |  |

Target: SARS-CoV-2 full length spike protein, V367F mutant, expressed on CHO cells (SARS-CoV-2), P0DTC2
Conditions: remark: other sources report otherwise

| Binder | median fluorescence intensity, fold over isotype control (fold over isotype) | median fluorescence fold over isotype control (fold over isotype) |
| --- | --- | --- |
| B1 | 4.82 |  |
| B2 |  | 11.4 |
| B3 | 1.04 |  |
| B4 | 3.19 |  |
| B5 | 1.14 |  |

Target: SARS-CoV-2 full length spike protein, V483A mutant (SARS-CoV-2), P0DTC2
Conditions: remark: other sources report otherwise

| Binder | median fold over isotype (fold over isotype) | median fluorescence fold over isotype control (fold over isotype) | median fluorescence intensity, fold over isotype control (fold over isotype) |
| --- | --- | --- | --- |
| B6 | 1.7 |  |  |
| B7 | 1.58 |  |  |
| B8 | 0.99 and 1.25 |  |  |
| B9 | 1.48 |  |  |
| B10 |  | 0.85 |  |
| B11 |  |  | 0.66 |

Target: SARS-CoV-2 full length spike protein, V483A mutant, expressed on CHO cells (SARS-CoV-2), P0DTC2
Conditions: remark: other sources report otherwise

| Binder | median fluorescence fold over isotype control (fold over isotype) | median fluorescence intensity, fold over isotype control (fold over isotype) |
| --- | --- | --- |
| B12 | 1.24 |  |
| B13 | 0.88 |  |
| B14 |  | 1 |
| B15 | 1.36 |  |
| B1 |  | 4.63 and 2.26 |
| B16 |  | 1.12 |
| B17 | 1.67 |  |
| B18 |  | 1.11 |
| B2 | 1.8 |  |
| B3 |  | 1.04 and 1 |
| B19 | 1.22 |  |
| B4 |  | 2.35 and 2.49 |
| B5 |  | 1.15 and 1.13 and 1.52 |
